Results from PMC11417369, “DNA sequence and chromatin differentiate sequence-specific transcription factor binding in the human malaria parasite Plasmodium falciparum”.

T1: PF3D7_0420300 D1 (Plasmodium falciparum, UniProt Q8I1N6 1956-2015)
T1 sequence: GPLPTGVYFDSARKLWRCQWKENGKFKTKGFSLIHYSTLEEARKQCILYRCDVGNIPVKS


Molecular target: T1, PF3D7_0420300 D1
Test: gcPBM; about 25 ug protein; PBS, 1% milk, 0.2 mg/ml BSA, salmon testes DNA, 0.03% Triton X-100
Conditions: tags: N-terminal GST (pGEX-4T-1), kept; label: surface-attached array probe

Row | Binder | binding signal
1 | CACACA_site5088 (dsDNA) DNA 1: CCAACATAGAGGGGCACACACATATATACCTAAAAA DNA 2: TTTTTAGGTATATATGTGTGTGCCCCTCTATGTTGG | 9.64 ln median PBM intensity, better of two orientations
2 | CACACA_site8720 (dsDNA) DNA 1: TATGTATTAAATTTTACACACATGATTCTCTATATG DNA 2: CATATAGAGAATCATGTGTGTAAAATTTAATACATA | 9.65 ln median PBM intensity, better of two orientations
3 | CACACA_site5336 (dsDNA) DNA 1: TATAATAATAAAAACACACACGTTGATTGTATTAGC DNA 2: GCTAATACAATCAACGTGTGTGTTTTTATTATTATA | 9.66 ln median PBM intensity, better of two orientations
4 | CACACA_site76 (dsDNA) DNA 1: GGCAGCAATTTAGTTACACACATATATAGGTATACA DNA 2: TGTATACCTATATATGTGTGTAACTAAATTGCTGCC | 9.67 ln median PBM intensity, better of two orientations
5 | CACACA_site4200 (dsDNA) DNA 1: TGTCCCCCTTTCTATGCACACTTTAAATTATTCAAA DNA 2: TTTGAATAATTTAAAGTGTGCATAGAAAGGGGGACA | 9.68 ln median PBM intensity, better of two orientations
6 | CACACA_site1373 (dsDNA) DNA 1: TACAAAATATATATGACACACATAAAAAAAAGTATA DNA 2: TATACTTTTTTTTATGTGTGTCATATATATTTTGTA | 9.69 ln median PBM intensity, better of two orientations
7 | CACACA_site4569 (dsDNA) DNA 1: TTGCCCATTTCATTAACACACAAATGTTTATATTCT DNA 2: AGAATATAAACATTTGTGTGTTAATGAAATGGGCAA | 9.7 ln median PBM intensity, better of two orientations
8 | CACACA_site6075 (dsDNA) DNA 1: AATAAATAAGCACATACACACATACATACATACATA DNA 2: TATGTATGTATGTATGTGTGTATGTGCTTATTTATT | 9.71 ln median PBM intensity, better of two orientations
9 | CACACA_site8696 (dsDNA) DNA 1: TGGGAAAAAATATATGCACACCCCCCAAAAAAAAAA DNA 2: TTTTTTTTTTGGGGGGTGTGCATATATTTTTTCCCA | 10.7 ln median PBM intensity, better of two orientations
10 | CACACA_site2584 (dsDNA) DNA 1: ATTGCTTTTCTTTTTGCACACTTATGCATATATATA DNA 2: TATATATATGCATAAGTGTGCAAAAAGAAAAGCAAT | 9.72 ln median PBM intensity, better of two orientations
11 | CACACA_site6811 (dsDNA) DNA 1: CATATAAAGATATGAACACACAAAAAGAATATTTCC DNA 2: GGAAATATTCTTTTTGTGTGTTCATATCTTTATATG | 9.72 ln median PBM intensity, better of two orientations
12 | CACACA_site2783 (dsDNA) DNA 1: TATGAAAGAAATAGTACACACATAAACATTTGTAAA DNA 2: TTTACAAATGTTTATGTGTGTACTATTTCTTTCATA | 9.73 ln median PBM intensity, better of two orientations
13 | CACACA_site4181 (dsDNA) DNA 1: GGATATATTTTATGTACACACACATATAAGGGATTA DNA 2: TAATCCCTTATATGTGTGTGTACATAAAATATATCC | 9.74 ln median PBM intensity, better of two orientations
14 | CACACA_site4699 (dsDNA) DNA 1: AAACAGAAGACATATACACACATACAAAAAAGTGCA DNA 2: TGCACTTTTTTGTATGTGTGTATATGTCTTCTGTTT | 9.75 ln median PBM intensity, better of two orientations
15 | CACACA_site8226 (dsDNA) DNA 1: TGATAACCTAATAATACACACACATGAATATATATA DNA 2: TATATATATTCATGTGTGTGTATTATTAGGTTATCA | 9.76 ln median PBM intensity, better of two orientations
16 | CACACA_site6737 (dsDNA) DNA 1: TAAAAAATAAAATACACACACATATTTATATTTATA DNA 2: TATAAATATAAATATGTGTGTGTATTTTATTTTTTA | 9.78 ln median PBM intensity, better of two orientations

Row | Binder | binding signal
17 | CACACA_site632 (dsDNA) DNA 1: ATATAATATTAGTGCACACACAAAAATGTACTAAAC DNA 2: GTTTAGTACATTTTTGTGTGTGCACTAATATTATAT | 9.79 ln median PBM intensity, better of two orientations
18 | CACACA_site8811 (dsDNA) DNA 1: TTAAAAATATATATAACACACACATAATATATATAT DNA 2: ATATATATATTATGTGTGTGTTATATATATTTTTAA | 9.8 ln median PBM intensity, better of two orientations
19 | CACACA_site6664 (dsDNA) DNA 1: CATATATTTTGAAACACACACATATAAAATATACAT DNA 2: ATGTATATTTTATATGTGTGTGTTTCAAAATATATG | 9.81 ln median PBM intensity, better of two orientations
20 | CACACA_site2206 (dsDNA) DNA 1: AAAAAAAACACGCGCACACACACACCCACCCACCGA DNA 2: TCGGTGGGTGGGTGTGTGTGTGCGCGTGTTTTTTTT | 10.7 ln median PBM intensity, better of two orientations
21 | CACACA_site9348 (dsDNA) DNA 1: TATATTTTGTTCTTTCCACACACAAATACATATATT DNA 2: AATATATGTATTTGTGTGTGGAAAGAACAAAATATA | 9.82 ln median PBM intensity, better of two orientations
22 | CACACA_negctrl_site896 (dsDNA) DNA 1: TGATTAAAAGAGGGAAAAAAAAAAAAAAAAAAAAAA DNA 2: TTTTTTTTTTTTTTTTTTTTTTCCCTCTTTTAATCA | 8.33 ln median PBM intensity, better of two orientations
23 | CACACA_negctrl_site412 (dsDNA) DNA 1: ATAAAAAGGTTTAAAAAAAAAAAAAAAAAAAAAAAA DNA 2: TTTTTTTTTTTTTTTTTTTTTTTTAAACCTTTTTAT | 8.38 ln median PBM intensity, better of two orientations
24 | CACACA_negctrl_site1559 (dsDNA) DNA 1: ATATTAAAATGAAAATATAAAAAAAAAAAAAAAAAA DNA 2: TTTTTTTTTTTTTTTTTTATATTTTCATTTTAATAT | 8.43 ln median PBM intensity, better of two orientations
25 | CACACA_negctrl_site1405 (dsDNA) DNA 1: ATGAAAAAAAAAAAAAAAAAAAAAAAAAAAAAAAAA DNA 2: TTTTTTTTTTTTTTTTTTTTTTTTTTTTTTTTTCAT | 8.53 ln median PBM intensity, better of two orientations
26 | CACACA_site9117 (dsDNA) DNA 1: AAAAAAAAAAAAAAAACACACATACACCCCCACCCA DNA 2: TGGGTGGGGGTGTATGTGTGTTTTTTTTTTTTTTTT | 10.7 ln median PBM intensity, better of two orientations
27 | CACACA_negctrl_site29 (dsDNA) DNA 1: TTTTTTTTTTTTTTTTTTTTTTTGCTCAGTGTGGTA DNA 2: TACCACACTGAGCAAAAAAAAAAAAAAAAAAAAAAA | 8.55 ln median PBM intensity, better of two orientations
28 | CACACA_negctrl_site1638 (dsDNA) DNA 1: ACATGTATACTTTTTACGAAAAAAAAAAAAAAAAAA DNA 2: TTTTTTTTTTTTTTTTTTCGTAAAAAGTATACATGT | 8.58 ln median PBM intensity, better of two orientations
29 | CACACA_negctrl_site1119 (dsDNA) DNA 1: ATTTTTTTTTTTTTTTTTTTTTTTTGGAGAAAGAGA DNA 2: TCTCTTTCTCCAAAAAAAAAAAAAAAAAAAAAAAAT | 8.63 ln median PBM intensity, better of two orientations
30 | CACACA_negctrl_site1508 (dsDNA) DNA 1: TTTTACTCTTAAAATAATAAAAAATATTCACATTTA DNA 2: TAAATGTGAATATTTTTTATTATTTTAAGAGTAAAA | 8.65 ln median PBM intensity, better of two orientations
31 | CACACA_negctrl_site146 (dsDNA) DNA 1: TTTATAAAAAATTTTTTTTTTTTTTTTTAAATATAT DNA 2: ATATATTTAAAAAAAAAAAAAAAAATTTTTTATAAA | 8.66 ln median PBM intensity, better of two orientations
32 | CACACA_negctrl_site1541 (dsDNA) DNA 1: TGCTAATAATTATTTGTTTAGCAACAAAAAAAAAAA DNA 2: TTTTTTTTTTTGTTGCTAAACAAATAATTATTAGCA | 8.69 ln median PBM intensity, better of two orientations
